In patent US20220177587A1, “METHODS AND USES OF VARIANT CD80 FUSION PROTEINS AND RELATED CONSTRUCTS” (Alpine Immune Sciences, Inc., priority 2018, published 2022):
Numbering of substitutions follows the chain as printed. Names and notes keep the numbering of the source.

Key:
[1] = molecular target: CD28 (human) (UniProt P10747); experiment: flow cytometry, transfected Expi293F cells
[2] = molecular target: human CTLA-4 (human) (UniProt P16410); experiment: flow cytometry, transfected Expi293F cells
Chain of human CTLA-4 (human) (P16410 36-223): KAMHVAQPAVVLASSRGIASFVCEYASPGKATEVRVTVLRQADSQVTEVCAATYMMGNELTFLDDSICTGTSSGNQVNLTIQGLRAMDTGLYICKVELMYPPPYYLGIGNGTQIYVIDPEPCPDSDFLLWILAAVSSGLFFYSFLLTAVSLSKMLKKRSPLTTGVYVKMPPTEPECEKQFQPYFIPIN

[3] = molecular target: human PD-L1 (human) (UniProt Q9NZQ7); experiment: flow cytometry, transfected Expi293F cells
Chain of human PD-L1 (human) (Q9NZQ7 19-290): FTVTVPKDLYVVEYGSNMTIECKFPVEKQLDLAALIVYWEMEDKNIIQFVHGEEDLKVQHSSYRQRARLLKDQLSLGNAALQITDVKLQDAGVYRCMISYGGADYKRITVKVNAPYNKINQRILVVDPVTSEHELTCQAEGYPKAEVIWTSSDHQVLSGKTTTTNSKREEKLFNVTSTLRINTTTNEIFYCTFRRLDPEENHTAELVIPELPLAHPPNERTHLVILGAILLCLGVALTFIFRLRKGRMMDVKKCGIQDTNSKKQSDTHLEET

[4] = molecular target: human CTLA-4 (huCTLA4), on stably transduced CHO cells (human) (UniProt P16410); experiment: flow cytometry on CHO/huCTLA4 cells; MFI relative to WT CD80 (CD80 WT IgV-Fc = 1.0)
Chain of human CTLA-4 (huCTLA4), on stably transduced CHO cells (human) (P16410 36-223): as the sequence (P16410 36-223) above

[5] = molecular target: CD28, endogenously expressed on Jurkat/IL2 reporter cells (human) (UniProt P10747); experiment: flow cytometry on Jurkat (CD28) cells; MFI relative to WT CD80 (CD80 WT IgV-Fc = 1.0)
[6] = molecular target: human PD-L1 (huPD-L1), on stably transduced CHO cells (human) (UniProt Q9NZQ7); experiment: flow cytometry; ratio of MFI on CHO/huPD-L1 cells to MFI on Jurkat (CD28) cells
Chain of human PD-L1 (huPD-L1), on stably transduced CHO cells (human) (Q9NZQ7 19-290): as the sequence (Q9NZQ7 19-290) above

[7] = molecular target: human PD-L1 (huPD-L1), on stably transduced CHO cells (human) (UniProt Q9NZQ7); experiment: flow cytometry on CHO cells stably expressing huPD-L1, 33.3 nM Fc fusion, PE anti-human Fc
[8] = molecular target: human CTLA-4 (huCTLA4), on stably transduced CHO cells (human) (UniProt P16410); experiment: flow cytometry on CHO cells stably expressing huCTLA4, 33.3 nM Fc fusion, PE anti-human Fc
[9] = molecular target: human PD-L1 (huPD-L1), on stably transduced CHO cells (human) (UniProt Q9NZQ7); experiment: flow cytometry on CHO/huPD-L1 cells; MFI relative to WT CD80 (CD80 WT IgV-Fc = 1.0)
[10] = molecular target: CD28, endogenously expressed on Jurkat/IL2 reporter cells (human) (UniProt P10747); experiment: flow cytometry on Jurkat/IL2 reporter cells (endogenous CD28), 33.3 nM Fc fusion, PE anti-human Fc
[11] = molecular target: CD28 (human) (UniProt P10747); experiment: flow cytometry, Jurkat cells (CD28)
[12] = molecular target: human CTLA-4 (human) (UniProt P16410); experiment: flow cytometry, CHO cells stably expressing CTLA4
[13] = molecular target: human PD-L1 (human) (UniProt Q9NZQ7); experiment: flow cytometry, MFI on PD-L1 cells over MFI on CD28 cells
[14] = molecular target: human PD-L1 (human) (UniProt Q9NZQ7); experiment: flow cytometry, CHO cells stably expressing PD-L1
[15] = molecular target: CD28 (human) (UniProt P10747); experiment: flow cytometry, Jurkat/IL2 reporter cells (CD28)
[16] = molecular target: human CTLA-4 (human) (UniProt P16410); experiment: flow cytometry, CHO cells expressing huCTLA4
[17] = molecular target: human PD-L1 (human) (UniProt Q9NZQ7); experiment: flow cytometry, CHO cells expressing huPD-L1
[18] = molecular target: CD28 (human) (UniProt P10747); experiment: flow cytometry, Jurkat/IL2 reporter cells (CD28), vs WT CD80 ECD-Fc (R&D)
[19] = molecular target: human CTLA-4 (human) (UniProt P16410); experiment: flow cytometry, CHO cells expressing huCTLA4, vs WT CD80 ECD-Fc (R&D)

B1: CD80 R29D/Y31L/Q33H/K36G/M38I/T41A/M43R/M47T/L70Q/D76G/A91G/S103L/I118V/T120S/I127T/T130A ECD-Fc (Fc fusion)
chain: VIHVTKEVKEVATLSCGHNVSVEELAQTDILWHKEGKIVLAMRSGDTNIWPEYKNRTIFDITNNLSIVIQALRPSGEGTYECVVLKYEKDGFKREHLAEVTLLVKADFPTPSISDFEVPSSNIRRITCSASGGFPEPHLSWLENGEELNAINTTVSQDPETELYAVSSKLDFNMTTNHSFMCLIKYGHLRVNQTFNWNTTKQEHFPDN
MFI [1]: 1910
parental ratio [1]: 0.04
MFI [2]: 1730
parental ratio [2]: 0.01
MFI [3]: 3510
parental ratio [3]: 0.04

B2: CD80 Y53C/L85R/K89N/A91T/F92P/K93V/R94L/I118V/T120S/I127T/T130A/K169E ECD-Fc (Fc fusion)
chain: VIHVTKEVKEVATLSCGHNVSVEELAQTRIYWQKEKKMVLTMMSGDMNIWPECKNRTIFDITNNLSIVILALRPSDEGTYECVVRKYENDTPVLEHLAEVTLSVKADFPTPSISDFEVPSSNIRRITCSASGGFPEPHLSWLENGEELNAINTTVSQDPETELYAVSSELDFNMTTNHSFMCLIKYGHLRVNQTFNWNTTKQEHFPDN
MFI [1]: 1400
parental ratio [1]: 0.03
MFI [2]: 1460
parental ratio [2]: 0.01
MFI [3]: 2550
parental ratio [3]: 0.03

B3: CD80 R29D/Y31L/Q33H/K36G/M38I/T41A/M43R/M47T/E81V/L85R/K89N/A91T/F92P/K93V/R94L/I118V/T120S/T130A/K169E/M174T ECD-Fc (Fc fusion)
chain: VIHVTKEVKEVATLSCGHNVSVEELAQTDILWHKEGKIVLAMRSGDTNIWPEYKNRTIFDITNNLSIVILALRPSDEGTYVCVVRKYENDTPVLEHLAEVTLSVKADFPTPSISDFEVPSSNIRRIICSASGGFPEPHLSWLENGEELNAINTTVSQDPETELYAVSSELDFNTTTNHSFMCLIKYGHLRVNQTFNWNTTKQEHFPDN
MFI [1]: 2740
parental ratio [1]: 0.06
MFI [2]: 2490
parental ratio [2]: 0.01
MFI [3]: 158000
parental ratio [3]: 0.06

B4: CD80 R29D/Y31L/Q33H/K36G/M38I/T41A/M43R/M47T/L70Q/E81V/K89N/A91T/F92P/K93V/R94L/I118V/T120S/I127T/T130A ECD-Fc (Fc fusion)
chain: B3 chain with L70Q, R85L, I127T, E169K, T174M
MFI [1]: 2110
parental ratio [1]: 0.05
MFI [2]: 2120
parental ratio [2]: 0.01
MFI [3]: 14200
parental ratio [3]: 0.05

B5: CD80 H18L/R29D/Y31L/Q33H/K36G/M38I/T41A/M43R/M47T/E81V/L85R/K89N/A91T/F92P/K93V/R94L/F116S/T130A/H188D ECD-Fc (Fc fusion)
chain: B3 chain with H18L, F116S, V118I, S120T, E169K, T174M, H188D
MFI [1]: 1240
parental ratio [1]: 0.03
MFI [2]: 2090
parental ratio [2]: 0.01
MFI [3]: 110000
parental ratio [3]: 0.03

B6: CD80 C16S/H18L/R29D/Y31L/Q33H/K36G/M38I/T41A/M43R/M47T/E81V/L85R/K89N/A91T/F92P/K93V/R94L/T110A/I118V/H188D ECD-Fc (Fc fusion)
chain: B3 chain with C16S, H18L, T110A, S120T, A130T, E169K, T174M, H188D
MFI [1]: 1210
parental ratio [1]: 0.03
MFI [2]: 1800
parental ratio [2]: 0.01
MFI [3]: 4500
parental ratio [3]: 0.03

B7: CD80 Y53C/L70Q/D90G/T130A/N149D/N152T/H188D ECD-Fc (Fc fusion)
chain: VIHVTKEVKEVATLSCGHNVSVEELAQTRIYWQKEKKMVLTMMSGDMNIWPECKNRTIFDITNNLSIVIQALRPSDEGTYECVVLKYEKGAFKREHLAEVTLSVKADFPTPSISDFEIPTSNIRRIICSASGGFPEPHLSWLENGEELDAITTTVSQDPETELYAVSSKLDFNMTTNHSFMCLIKYGDLRVNQTFNWNTTKQEHFPDN
MFI [1]: 1990
parental ratio [1]: 0.04
MFI [2]: 3110
parental ratio [2]: 0.01
MFI [3]: 3290
parental ratio [3]: 0.04

B8: variant CD80 IgV-Fc D46V/M47I/A71G (Fc fusion)
chain: VIHVTKEVKEVATLSCGHNVSVEELAQTRIYWQKEKKMVLTMMSGVINIWPEYKNRTIFDITNNLSIVILGLRPSDEGTYECVVLKYEKDAFKREHLAEVTLSVKAD
Fold change to WT CD80 [4]: 14.8 fold
Fold change to WT CD80 [5]: 20.1 fold
Ratio of PDL1:CD28 [6]: 6
MFI at 33.3 nM [7]: 7330 MFI
MFI at 33.3 nM [8]: 28400 MFI
Fold change to WT CD80 [9]: 104 fold
MFI at 33.3 nM [10]: 1320 MFI

B9: variant CD80 IgV-Fc M47I/A71G (Fc fusion)
chain: B8 chain with V46D
Fold change to WT CD80 [4]: 14.5 fold
Fold change to WT CD80 [5]: 12.5 fold
Ratio of PDL1:CD28 [6]: 6
MFI at 33.3 nM [7]: 5100 MFI
MFI at 33.3 nM [8]: 27800 MFI
Fold change to WT CD80 [9]: 72.5 fold
MFI at 33.3 nM [10]: 823 MFI

B10: variant CD80 IgV-Fc H18Y/E35D/M47L/A71G/A91S (Fc fusion)
chain: B8 chain with H18Y, E35D, V46D, I47L, A91S
Fold change to WT CD80 [4]: 12.6 fold
Fold change to WT CD80 [5]: 8 fold
Ratio of PDL1:CD28 [6]: 14
MFI at 33.3 nM [7]: 7580 MFI
MFI at 33.3 nM [8]: 24200 MFI
Fold change to WT CD80 [9]: 108 fold
MFI at 33.3 nM [10]: 528 MFI

B11: variant CD80 IgV-Fc E35D/M47L/A71G/L85M (Fc fusion)
chain: B8 chain with E35D, V46D, I47L, L85M
Fold change to WT CD80 [4]: 8.7 fold
Fold change to WT CD80 [5]: 3 fold
Ratio of PDL1:CD28 [6]: 42
MFI at 33.3 nM [7]: 8310 MFI
MFI at 33.3 nM [8]: 16600 MFI
Fold change to WT CD80 [9]: 118 fold
MFI at 33.3 nM [10]: 199 MFI

B12: variant CD80 IgV-Fc Q27H/E35D/M47I (Fc fusion)
chain: B8 chain with Q27H, E35D, V46D, G71A
Fold change to WT CD80 [4]: 14.4 fold
Fold change to WT CD80 [5]: 11.5 fold
Ratio of PDL1:CD28 [6]: 5
MFI at 33.3 nM [7]: 3420 MFI
MFI at 33.3 nM [8]: 27500 MFI
Fold change to WT CD80 [9]: 48.7 fold
MFI at 33.3 nM [10]: 756 MFI

B13: variant CD80 IgV-Fc E35D/L97R (Fc fusion)
chain: B8 chain with E35D, V46D, I47M, G71A, L97R
MFI at 33.3 nM [7]: 2610 MFI
MFI at 33.3 nM [8]: 22800 MFI
MFI at 33.3 nM [10]: 44.6 MFI

B14: variant CD80 IgV-Fc E35D/D46E/L85M (Fc fusion)
chain: B8 chain with E35D, V46E, I47M, G71A, L85M
Fold change to WT CD80 [4]: 15.8 fold
Fold change to WT CD80 [5]: 2.5 fold
Ratio of PDL1:CD28 [6]: 18
MFI at 33.3 nM [7]: 2880 MFI
MFI at 33.3 nM [8]: 30300 MFI
Fold change to WT CD80 [9]: 41 fold
MFI at 33.3 nM [10]: 164 MFI

B15: variant CD80 IgV-Fc H18Y/A26E/M47L/A71G (Fc fusion)
chain: B8 chain with H18Y, A26E, V46D, I47L
Fold change to WT CD80 [11]: 13.9 fold
MFI at 33.3 nM [11]: 611 MFI
Fold change to WT CD80 [12]: 16.3 fold
MFI at 33.3 nM [12]: 22100 MFI
Ratio of PDL1:CD28 [13]: 25.5
Fold change to WT CD80 [14]: 357 fold
MFI at 33.3 nM [14]: 15600 MFI

B16: variant CD80 IgV-Fc E35D/D46E (Fc fusion)
chain: B8 chain with E35D, V46E, I47M, G71A
Fold change to WT CD80 [4]: 14.6 fold
Fold change to WT CD80 [5]: 11.8 fold
Ratio of PDL1:CD28 [6]: 5
MFI at 33.3 nM [7]: 3760 MFI
MFI at 33.3 nM [8]: 27900 MFI
Fold change to WT CD80 [9]: 53.4 fold
MFI at 33.3 nM [10]: 779 MFI

B17: variant CD80 IgV-Fc V22A/E35D/M47I/Y87N (Fc fusion)
chain: B8 chain with V22A, E35D, V46D, G71A, Y87N
MFI at 33.3 nM [15]: 15300 MFI
MFI at 33.3 nM [16]: 246000 MFI
MFI at 33.3 nM [17]: 35300 MFI
Fold change to WT CD80 [18]: 0.85 fold
Fold change to WT CD80 [19]: 1.56 fold

B18: variant CD80 IgV-Fc Q27L/E35D/M47V/I61V/L85M (Fc fusion)
chain: B8 chain with Q27L, E35D, V46D, I47V, I61V, G71A, L85M
Fold change to WT CD80 [4]: 14.6 fold
Fold change to WT CD80 [5]: 3.5 fold
Ratio of PDL1:CD28 [6]: 12
MFI at 33.3 nM [7]: 2700 MFI
MFI at 33.3 nM [8]: 27900 MFI
Fold change to WT CD80 [9]: 38.5 fold
MFI at 33.3 nM [10]: 230 MFI

B19: variant CD80 IgV-Fc E35D/D46E/M47I (Fc fusion)
chain: B8 chain with E35D, V46E, G71A
Fold change to WT CD80 [4]: 11.2 fold
Fold change to WT CD80 [5]: 15.2 fold
Ratio of PDL1:CD28 [6]: 4
MFI at 33.3 nM [7]: 3790 MFI
MFI at 33.3 nM [8]: 21400 MFI
Fold change to WT CD80 [9]: 53.9 fold
MFI at 33.3 nM [10]: 1000 MFI
